Results taken from US20260049138A1 (Chugai, published 2026).

target: T1, CD3ε homodimer protein (human, UniProt P07766 23-126, limits assumed); test: SPR Biacore T200, CD3ε homodimer on chip;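 further: Light-chain single-residue variant antibodies injected over amine-coupled CD3ε homodimer on a CM4 chip at 25 °C, bound amount divided by that of the GLS3000-containing antibody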
T1 construct: also called CD3 (CD3ε)
T1 sequence (P07766 23-126 limits assumed): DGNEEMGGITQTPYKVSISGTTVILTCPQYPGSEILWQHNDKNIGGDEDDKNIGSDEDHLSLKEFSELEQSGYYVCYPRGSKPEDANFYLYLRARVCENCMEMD
Method: Each one-amino acid altered form constructed, expressed, and purified in the paragraph (6-2) was evaluated using Biacore T200 (GE Healthcare Japan Corp.). An appropriate amount of CD3ε homodimer protein was immobilized onto Sensor chip CM4 (GE Healthcare Japan Corp.) by the amine coupling method. Then, the antibody having an appropriate concentration was injected thereto as an analyte and allowed to interact with the CD3ε homodimer protein on the sensor chip. Then, the sensor chip was regenerated by the injection of 10 mmol/L glycine-HCl (pH 1.5). The assay was conducted at 25° C., and HBS-EP+ (GE Healthcare Japan Corp.) was used as a running buffer. […] Each parameter was calculated using Biacore T200 Evaluation Software (GE Healthcare Japan Corp.).
Specifically, when the amount of the GLS3000-containing antibody bound was defined as X and the amount of the L chain one-amino acid altered form bound was defined as Y, a value of Z (ratio of amounts bound)=Y/X was used.

Binder | ratio of amount bound vs unaltered GLS3000
GLS3000 H27dA one-arm antibody (antibody, human IgG1, kappa, L234A L235A, N297A, name in Kabat numbering) heavy: QVQLVESGGGVVQPGRSLRLSCAASGFTFSNAWMHWVRQAPGKGLEWVAQIKAKSNNYATYYAESVKGRFTISRDDSKNSLYLQMNSLKTEDTAVYYCRYVHYGAYYGVDAWGQGTTVTVSSASTKGPSVFPLAPSSKSTSGGTAALGCLVKDYFPEPVTVSWNSGALTSGVHTFPAVLQSSGLYSLSSVVTVPSSSLGTQTYICNVNHKPSNTKVDKKVEPKSCDKTHTCPPCPAPEAAGGPSVFLFPPKPKDTLMISRTPEVTCVVVDVSHEDPEVKFNWYVDGVEVHNAKTKPREEQYASTYRVVSVLTVLHQDWLNGKEYKCKVSNKALPAPIEKTISKAKGQPREPQVYTLPPSRCELTKNQVSLSCAVKGFYPSDIAVEWESNGQPENNYKTTPPVLDSDGSFFLVSKLTVDKSRWQQGNVFSCSVMHEALHNHYTQKSLSLSPDYKDDDDK EPKSSDKTHTCPPCPAPELLGGPSVFLFPPKPKDTLMISRTPEVTCVVVDVSHEDPEVKFNWYVDGVEVHNAKTKPREEQYNSTYRVVSVLTVLHQDWLNGKEYKCKVSNKALPAPIEKTISKAKGQPREPQVCTLPPSRDELTKNQVSLWCLVKGFYPSDIAVEWESNGQPENNYKTTPPVLDSDGSFFLYSKLTVDKSRWQQGNVFSCSVMHEALHNRYTQKSLSLSP light: DIVMTQSPLSLPVTPGEPASISCRSSQSLVASNRNTYLHWYQQKPGQAPRLLIYKVSNRFSGVPDRFSGSGSGTDFTLKISRVEAEDVGVYYCGQGTQVPYTFGQGTKLEIKRTVAAPSVFIFPPSDEQLKSGTASVVCLLNNFYPREAKVQWKVDNALQSGNSQESVTEQDSKDSTYSLSSTLTLSKADYEKHKVYACEVTHQGLSSPVTKSFNRGEC | 0.48
GLS3000 F55H one-arm antibody (antibody, human IgG1, kappa, L234A L235A, N297A, name in Kabat numbering) heavy: QVQLVESGGGVVQPGRSLRLSCAASGFTFSNAWMHWVRQAPGKGLEWVAQIKAKSNNYATYYAESVKGRFTISRDDSKNSLYLQMNSLKTEDTAVYYCRYVHYGAYYGVDAWGQGTTVTVSSASTKGPSVFPLAPSSKSTSGGTAALGCLVKDYFPEPVTVSWNSGALTSGVHTFPAVLQSSGLYSLSSVVTVPSSSLGTQTYICNVNHKPSNTKVDKKVEPKSCDKTHTCPPCPAPEAAGGPSVFLFPPKPKDTLMISRTPEVTCVVVDVSHEDPEVKFNWYVDGVEVHNAKTKPREEQYASTYRVVSVLTVLHQDWLNGKEYKCKVSNKALPAPIEKTISKAKGQPREPQVYTLPPSRCELTKNQVSLSCAVKGFYPSDIAVEWESNGQPENNYKTTPPVLDSDGSFFLVSKLTVDKSRWQQGNVFSCSVMHEALHNHYTQKSLSLSPDYKDDDDK EPKSSDKTHTCPPCPAPELLGGPSVFLFPPKPKDTLMISRTPEVTCVVVDVSHEDPEVKFNWYVDGVEVHNAKTKPREEQYNSTYRVVSVLTVLHQDWLNGKEYKCKVSNKALPAPIEKTISKAKGQPREPQVCTLPPSRDELTKNQVSLWCLVKGFYPSDIAVEWESNGQPENNYKTTPPVLDSDGSFFLYSKLTVDKSRWQQGNVFSCSVMHEALHNRYTQKSLSLSP light: DIVMTQSPLSLPVTPGEPASISCRSSQSLVHSNRNTYLHWYQQKPGQAPRLLIYKVSNRHSGVPDRFSGSGSGTDFTLKISRVEAEDVGVYYCGQGTQVPYTFGQGTKLEIKRTVAAPSVFIFPPSDEQLKSGTASVVCLLNNFYPREAKVQWKVDNALQSGNSQESVTEQDSKDSTYSLSSTLTLSKADYEKHKVYACEVTHQGLSSPVTKSFNRGEC | 0.94
GLS3000 F55D one-arm antibody (antibody, human IgG1, kappa, L234A L235A, N297A, name in Kabat numbering) heavy: QVQLVESGGGVVQPGRSLRLSCAASGFTFSNAWMHWVRQAPGKGLEWVAQIKAKSNNYATYYAESVKGRFTISRDDSKNSLYLQMNSLKTEDTAVYYCRYVHYGAYYGVDAWGQGTTVTVSSASTKGPSVFPLAPSSKSTSGGTAALGCLVKDYFPEPVTVSWNSGALTSGVHTFPAVLQSSGLYSLSSVVTVPSSSLGTQTYICNVNHKPSNTKVDKKVEPKSCDKTHTCPPCPAPEAAGGPSVFLFPPKPKDTLMISRTPEVTCVVVDVSHEDPEVKFNWYVDGVEVHNAKTKPREEQYASTYRVVSVLTVLHQDWLNGKEYKCKVSNKALPAPIEKTISKAKGQPREPQVYTLPPSRCELTKNQVSLSCAVKGFYPSDIAVEWESNGQPENNYKTTPPVLDSDGSFFLVSKLTVDKSRWQQGNVFSCSVMHEALHNHYTQKSLSLSPDYKDDDDK EPKSSDKTHTCPPCPAPELLGGPSVFLFPPKPKDTLMISRTPEVTCVVVDVSHEDPEVKFNWYVDGVEVHNAKTKPREEQYNSTYRVVSVLTVLHQDWLNGKEYKCKVSNKALPAPIEKTISKAKGQPREPQVCTLPPSRDELTKNQVSLWCLVKGFYPSDIAVEWESNGQPENNYKTTPPVLDSDGSFFLYSKLTVDKSRWQQGNVFSCSVMHEALHNRYTQKSLSLSP light: DIVMTQSPLSLPVTPGEPASISCRSSQSLVHSNRNTYLHWYQQKPGQAPRLLIYKVSNRDSGVPDRFSGSGSGTDFTLKISRVEAEDVGVYYCGQGTQVPYTFGQGTKLEIKRTVAAPSVFIFPPSDEQLKSGTASVVCLLNNFYPREAKVQWKVDNALQSGNSQESVTEQDSKDSTYSLSSTLTLSKADYEKHKVYACEVTHQGLSSPVTKSFNRGEC | 0.65
GLS3000 F55G one-arm antibody (antibody, human IgG1, kappa, L234A L235A, N297A, name in Kabat numbering) heavy: QVQLVESGGGVVQPGRSLRLSCAASGFTFSNAWMHWVRQAPGKGLEWVAQIKAKSNNYATYYAESVKGRFTISRDDSKNSLYLQMNSLKTEDTAVYYCRYVHYGAYYGVDAWGQGTTVTVSSASTKGPSVFPLAPSSKSTSGGTAALGCLVKDYFPEPVTVSWNSGALTSGVHTFPAVLQSSGLYSLSSVVTVPSSSLGTQTYICNVNHKPSNTKVDKKVEPKSCDKTHTCPPCPAPEAAGGPSVFLFPPKPKDTLMISRTPEVTCVVVDVSHEDPEVKFNWYVDGVEVHNAKTKPREEQYASTYRVVSVLTVLHQDWLNGKEYKCKVSNKALPAPIEKTISKAKGQPREPQVYTLPPSRCELTKNQVSLSCAVKGFYPSDIAVEWESNGQPENNYKTTPPVLDSDGSFFLVSKLTVDKSRWQQGNVFSCSVMHEALHNHYTQKSLSLSPDYKDDDDK EPKSSDKTHTCPPCPAPELLGGPSVFLFPPKPKDTLMISRTPEVTCVVVDVSHEDPEVKFNWYVDGVEVHNAKTKPREEQYNSTYRVVSVLTVLHQDWLNGKEYKCKVSNKALPAPIEKTISKAKGQPREPQVCTLPPSRDELTKNQVSLWCLVKGFYPSDIAVEWESNGQPENNYKTTPPVLDSDGSFFLYSKLTVDKSRWQQGNVFSCSVMHEALHNRYTQKSLSLSP light: DIVMTQSPLSLPVTPGEPASISCRSSQSLVHSNRNTYLHWYQQKPGQAPRLLIYKVSNRGSGVPDRFSGSGSGTDFTLKISRVEAEDVGVYYCGQGTQVPYTFGQGTKLEIKRTVAAPSVFIFPPSDEQLKSGTASVVCLLNNFYPREAKVQWKVDNALQSGNSQESVTEQDSKDSTYSLSSTLTLSKADYEKHKVYACEVTHQGLSSPVTKSFNRGEC | 1.31
GLS3000 F55A one-arm antibody (antibody, human IgG1, kappa, L234A L235A, N297A, name in Kabat numbering) heavy: QVQLVESGGGVVQPGRSLRLSCAASGFTFSNAWMHWVRQAPGKGLEWVAQIKAKSNNYATYYAESVKGRFTISRDDSKNSLYLQMNSLKTEDTAVYYCRYVHYGAYYGVDAWGQGTTVTVSSASTKGPSVFPLAPSSKSTSGGTAALGCLVKDYFPEPVTVSWNSGALTSGVHTFPAVLQSSGLYSLSSVVTVPSSSLGTQTYICNVNHKPSNTKVDKKVEPKSCDKTHTCPPCPAPEAAGGPSVFLFPPKPKDTLMISRTPEVTCVVVDVSHEDPEVKFNWYVDGVEVHNAKTKPREEQYASTYRVVSVLTVLHQDWLNGKEYKCKVSNKALPAPIEKTISKAKGQPREPQVYTLPPSRCELTKNQVSLSCAVKGFYPSDIAVEWESNGQPENNYKTTPPVLDSDGSFFLVSKLTVDKSRWQQGNVFSCSVMHEALHNHYTQKSLSLSPDYKDDDDK EPKSSDKTHTCPPCPAPELLGGPSVFLFPPKPKDTLMISRTPEVTCVVVDVSHEDPEVKFNWYVDGVEVHNAKTKPREEQYNSTYRVVSVLTVLHQDWLNGKEYKCKVSNKALPAPIEKTISKAKGQPREPQVCTLPPSRDELTKNQVSLWCLVKGFYPSDIAVEWESNGQPENNYKTTPPVLDSDGSFFLYSKLTVDKSRWQQGNVFSCSVMHEALHNRYTQKSLSLSP light: DIVMTQSPLSLPVTPGEPASISCRSSQSLVHSNRNTYLHWYQQKPGQAPRLLIYKVSNRASGVPDRFSGSGSGTDFTLKISRVEAEDVGVYYCGQGTQVPYTFGQGTKLEIKRTVAAPSVFIFPPSDEQLKSGTASVVCLLNNFYPREAKVQWKVDNALQSGNSQESVTEQDSKDSTYSLSSTLTLSKADYEKHKVYACEVTHQGLSSPVTKSFNRGEC | 1.13
GLS3000 F55E one-arm antibody (antibody, human IgG1, kappa, L234A L235A, N297A, name in Kabat numbering) heavy: QVQLVESGGGVVQPGRSLRLSCAASGFTFSNAWMHWVRQAPGKGLEWVAQIKAKSNNYATYYAESVKGRFTISRDDSKNSLYLQMNSLKTEDTAVYYCRYVHYGAYYGVDAWGQGTTVTVSSASTKGPSVFPLAPSSKSTSGGTAALGCLVKDYFPEPVTVSWNSGALTSGVHTFPAVLQSSGLYSLSSVVTVPSSSLGTQTYICNVNHKPSNTKVDKKVEPKSCDKTHTCPPCPAPEAAGGPSVFLFPPKPKDTLMISRTPEVTCVVVDVSHEDPEVKFNWYVDGVEVHNAKTKPREEQYASTYRVVSVLTVLHQDWLNGKEYKCKVSNKALPAPIEKTISKAKGQPREPQVYTLPPSRCELTKNQVSLSCAVKGFYPSDIAVEWESNGQPENNYKTTPPVLDSDGSFFLVSKLTVDKSRWQQGNVFSCSVMHEALHNHYTQKSLSLSPDYKDDDDK EPKSSDKTHTCPPCPAPELLGGPSVFLFPPKPKDTLMISRTPEVTCVVVDVSHEDPEVKFNWYVDGVEVHNAKTKPREEQYNSTYRVVSVLTVLHQDWLNGKEYKCKVSNKALPAPIEKTISKAKGQPREPQVCTLPPSRDELTKNQVSLWCLVKGFYPSDIAVEWESNGQPENNYKTTPPVLDSDGSFFLYSKLTVDKSRWQQGNVFSCSVMHEALHNRYTQKSLSLSP light: DIVMTQSPLSLPVTPGEPASISCRSSQSLVHSNRNTYLHWYQQKPGQAPRLLIYKVSNRESGVPDRFSGSGSGTDFTLKISRVEAEDVGVYYCGQGTQVPYTFGQGTKLEIKRTVAAPSVFIFPPSDEQLKSGTASVVCLLNNFYPREAKVQWKVDNALQSGNSQESVTEQDSKDSTYSLSSTLTLSKADYEKHKVYACEVTHQGLSSPVTKSFNRGEC | 0.72
